*1 amine or outer side, *2 acyl side, *3 side chain or, on linkers, in order; H or OH if unused. Bridges are numbered along the chain shown (N, C = ends). Where no end group is shown, it is not given here. [ ]: non-standard residue; d: D form. MTXCOO‑CH2CO = methotrexate-acetyl; 4Pal = N[C@@H](Cc1ccncc1)C(=O)O; Suc = O=C(CCC(=O)[*:2])[*:1]; hSer = N[C@@H](CCO)C(=O)O; Nle = CCCC[C@H](N)C(=O)O; Nva = CCC[C@H](N)C(=O)O; Abu = CC[C@H](N)C(=O)O
B1: D-Ser-D-Ser-D-Ser-D-Ser-D-Ser-L-Lys-D-Tyr-D-Tyr-cyclo[L-Cys-L-Phe-D-Trp-L-Lys-L-Thr-L-Cys]-L-Thr-NH2 (peptide)
peptide: [dS][dS][dS][dS][dS]K[dY][dY]CF[dW]KTCT-NH2
modifications: disulfide 9-14; N-terminus assumed
SMILES: C[C@@H](O)[C@H](NC(=O)[C@@H]1CSSC[C@H](NC(=O)[C@@H](Cc2ccc(O)cc2)NC(=O)[C@@H](Cc2ccc(O)cc2)NC(=O)[C@H](CCCCN)NC(=O)[C@@H](CO)NC(=O)[C@@H](CO)NC(=O)[C@@H](CO)NC(=O)[C@@H](CO)NC(=O)[C@H](N)CO)C(=O)N[C@@H](Cc2ccccc2)C(=O)N[C@H](Cc2c[nH]c3ccccc23)C(=O)N[C@@H](CCCCN)C(=O)N[C@@H]([C@@H](C)O)C(=O)N1)C(N)=O
B2: D-Ser-D-Ser-D-Ser-D-Ser-D-Ser-L-Thr-D-Tyr-D-Ser-cyclo[L-Cys-L-Phe-D-Trp-L-Lys-L-Thr-L-Cys]-L-Thr-NH2 (peptide)
peptide: [dS][dS][dS][dS][dS]T[dY][dS]CF[dW]KTCT-NH2
modifications: disulfide 9-14; N-terminus assumed
SMILES: C[C@@H](O)[C@H](NC(=O)[C@@H]1CSSC[C@H](NC(=O)[C@@H](CO)NC(=O)[C@@H](Cc2ccc(O)cc2)NC(=O)[C@@H](NC(=O)[C@@H](CO)NC(=O)[C@@H](CO)NC(=O)[C@@H](CO)NC(=O)[C@@H](CO)NC(=O)[C@H](N)CO)[C@@H](C)O)C(=O)N[C@@H](Cc2ccccc2)C(=O)N[C@H](Cc2c[nH]c3ccccc23)C(=O)N[C@@H](CCCCN)C(=O)N[C@@H]([C@@H](C)O)C(=O)N1)C(N)=O
B3: D-Ser-D-Ser-D-Ser-D-Ser-D-Ser-L-Norleucine-D-Tyr-D-Ser-cyclo[L-Cys-L-Phe-D-Trp-L-Lys-L-Thr-L-Cys]-L-Thr-NH2 (peptide)
peptide: [dS][dS][dS][dS][dS][Nle][dY][dS]CF[dW]KTCT-NH2
modifications: disulfide 9-14; N-terminus assumed
SMILES: CCCC[C@H](NC(=O)[C@@H](CO)NC(=O)[C@@H](CO)NC(=O)[C@@H](CO)NC(=O)[C@@H](CO)NC(=O)[C@H](N)CO)C(=O)N[C@H](Cc1ccc(O)cc1)C(=O)N[C@H](CO)C(=O)N[C@H]1CSSC[C@@H](C(=O)N[C@H](C(N)=O)[C@@H](C)O)NC(=O)[C@H]([C@@H](C)O)NC(=O)[C@H](CCCCN)NC(=O)[C@@H](Cc2c[nH]c3ccccc23)NC(=O)[C@H](Cc2ccccc2)NC1=O
B4: D-Gln-D-Gln-D-Gln-D-Gln-D-Gln-D-Gln-D-Gln-D-Gln-D-Gln-D-Gln-L-Lys-D-Tyr-D-Tyr-cyclo[L-Cys-L-Phe-D-Trp-L-Lys-L-Thr-L-Cys]-L-Thr-NH2 (peptide)
peptide: [dQ][dQ][dQ][dQ][dQ][dQ][dQ][dQ][dQ][dQ]K[dY][dY]CF[dW]KTCT-NH2
modifications: disulfide 14-19; N-terminus assumed
SMILES: C[C@@H](O)[C@H](NC(=O)[C@@H]1CSSC[C@H](NC(=O)[C@@H](Cc2ccc(O)cc2)NC(=O)[C@@H](Cc2ccc(O)cc2)NC(=O)[C@H](CCCCN)NC(=O)[C@@H](CCC(N)=O)NC(=O)[C@@H](CCC(N)=O)NC(=O)[C@@H](CCC(N)=O)NC(=O)[C@@H](CCC(N)=O)NC(=O)[C@@H](CCC(N)=O)NC(=O)[C@@H](CCC(N)=O)NC(=O)[C@@H](CCC(N)=O)NC(=O)[C@@H](CCC(N)=O)NC(=O)[C@@H](CCC(N)=O)NC(=O)[C@H](N)CCC(N)=O)C(=O)N[C@@H](Cc2ccccc2)C(=O)N[C@H](Cc2c[nH]c3ccccc23)C(=O)N[C@@H](CCCCN)C(=O)N[C@@H]([C@@H](C)O)C(=O)N1)C(N)=O
B5: D-Ser-D-Ser-D-Ser-D-Gln-D-Ser-D-Ser-D-Ser-D-Gln-D-Ser-D-Ser-D-Ser-D-Gln-L-Norvaline-D-Tyr-D-Ser-cyclo[L-Cys-L-Phe-D-Trp-L-Lys-L-Thr-L-Cys]-L-Thr-NH2 (peptide)
peptide: [dS][dS][dS][dQ][dS][dS][dS][dQ][dS][dS][dS][dQ][Nva][dY][dS]CF[dW]KTCT-NH2
modifications: disulfide 16-21; N-terminus assumed
SMILES: CCC[C@H](NC(=O)[C@@H](CCC(N)=O)NC(=O)[C@@H](CO)NC(=O)[C@@H](CO)NC(=O)[C@@H](CO)NC(=O)[C@@H](CCC(N)=O)NC(=O)[C@@H](CO)NC(=O)[C@@H](CO)NC(=O)[C@@H](CO)NC(=O)[C@@H](CCC(N)=O)NC(=O)[C@@H](CO)NC(=O)[C@@H](CO)NC(=O)[C@H](N)CO)C(=O)N[C@H](Cc1ccc(O)cc1)C(=O)N[C@H](CO)C(=O)N[C@H]1CSSC[C@@H](C(=O)N[C@H](C(N)=O)[C@@H](C)O)NC(=O)[C@H]([C@@H](C)O)NC(=O)[C@H](CCCCN)NC(=O)[C@@H](Cc2c[nH]c3ccccc23)NC(=O)[C@H](Cc2ccccc2)NC1=O
B6: D-Ser-D-Ser-D-Ser-D-Ser-D-Ser-L-Lys-D-Tyr-D-Ser-cyclo[L-Cys-L-Phe-D-Trp-L-Lys-L-Thr-L-Cys]-L-Thr-NH2 (peptide)
peptide: [dS][dS][dS][dS][dS]K[dY][dS]CF[dW]KTCT-NH2
modifications: disulfide 9-14; not fully specified; printed as D-Ser-D-Ser-D-Ser-D-Ser-D-Ser-L-Lys-D-Tyr-D-Ser-cyclo[L-Cys-L-Phe-D-Trp-L-Lys-L-Thr-L-Cys]-L-Thr-NH2
B7: D-Ser-D-Ser-D-Ser-D-Ser-D-Ser-L-Asp-D-Tyr-D-Ser-cyclo[L-Cys-L-Phe-D-Trp-L-Lys-L-Thr-L-Cys]-L-Thr-NH2 (peptide)
peptide: [dS][dS][dS][dS][dS]D[dY][dS]CF[dW]KTCT-NH2
modifications: disulfide 9-14; N-terminus assumed
SMILES: C[C@@H](O)[C@H](NC(=O)[C@@H]1CSSC[C@H](NC(=O)[C@@H](CO)NC(=O)[C@@H](Cc2ccc(O)cc2)NC(=O)[C@H](CC(=O)O)NC(=O)[C@@H](CO)NC(=O)[C@@H](CO)NC(=O)[C@@H](CO)NC(=O)[C@@H](CO)NC(=O)[C@H](N)CO)C(=O)N[C@@H](Cc2ccccc2)C(=O)N[C@H](Cc2c[nH]c3ccccc23)C(=O)N[C@@H](CCCCN)C(=O)N[C@@H]([C@@H](C)O)C(=O)N1)C(N)=O
B8: D-Ser-D-Ser-D-Ser-D-Ser-D-Ser-L-4Pal-D-Tyr-D-Ser-cyclo[L-Cys-L-Phe-D-Trp-L-Lys-L-Thr-L-Cys]-L-Thr-NH2 (peptide)
peptide: [dS][dS][dS][dS][dS][4Pal][dY][dS]CF[dW]KTCT-NH2
modifications: disulfide 9-14; N-terminus assumed
SMILES: C[C@@H](O)[C@H](NC(=O)[C@@H]1CSSC[C@H](NC(=O)[C@@H](CO)NC(=O)[C@@H](Cc2ccc(O)cc2)NC(=O)[C@H](Cc2ccncc2)NC(=O)[C@@H](CO)NC(=O)[C@@H](CO)NC(=O)[C@@H](CO)NC(=O)[C@@H](CO)NC(=O)[C@H](N)CO)C(=O)N[C@@H](Cc2ccccc2)C(=O)N[C@H](Cc2c[nH]c3ccccc23)C(=O)N[C@@H](CCCCN)C(=O)N[C@@H]([C@@H](C)O)C(=O)N1)C(N)=O
B9: D-Ser-D-Ser-D-Ser-D-Ser-D-Ser-L-hSer-D-Tyr-D-Ser-cyclo[L-Cys-L-Phe-D-Trp-L-Lys-L-Thr-L-Cys]-L-Thr-NH2 (peptide)
peptide: [dS][dS][dS][dS][dS][hSer][dY][dS]CF[dW]KTCT-NH2
modifications: disulfide 9-14; N-terminus assumed
SMILES: C[C@@H](O)[C@H](NC(=O)[C@@H]1CSSC[C@H](NC(=O)[C@@H](CO)NC(=O)[C@@H](Cc2ccc(O)cc2)NC(=O)[C@H](CCO)NC(=O)[C@@H](CO)NC(=O)[C@@H](CO)NC(=O)[C@@H](CO)NC(=O)[C@@H](CO)NC(=O)[C@H](N)CO)C(=O)N[C@@H](Cc2ccccc2)C(=O)N[C@H](Cc2c[nH]c3ccccc23)C(=O)N[C@@H](CCCCN)C(=O)N[C@@H]([C@@H](C)O)C(=O)N1)C(N)=O
B10: D-Ser-D-Ser-D-Ser-D-Ser-D-Ser-L-Gln-D-Tyr-D-Ser-cyclo[L-Cys-L-Phe-D-Trp-L-Lys-L-Thr-L-Cys]-L-Thr-NH2 (peptide)
peptide: [dS][dS][dS][dS][dS]Q[dY][dS]CF[dW]KTCT-NH2
modifications: disulfide 9-14; N-terminus assumed
SMILES: C[C@@H](O)[C@H](NC(=O)[C@@H]1CSSC[C@H](NC(=O)[C@@H](CO)NC(=O)[C@@H](Cc2ccc(O)cc2)NC(=O)[C@H](CCC(N)=O)NC(=O)[C@@H](CO)NC(=O)[C@@H](CO)NC(=O)[C@@H](CO)NC(=O)[C@@H](CO)NC(=O)[C@H](N)CO)C(=O)N[C@@H](Cc2ccccc2)C(=O)N[C@H](Cc2c[nH]c3ccccc23)C(=O)N[C@@H](CCCCN)C(=O)N[C@@H]([C@@H](C)O)C(=O)N1)C(N)=O
B11: Succinate-D-Asp-D-Ser-D-Ser-D-Ser-D-Ser-D-Ser-L-Thr-D-Tyr-D-Ser-cyclo[L-Cys-L-Phe-D-Trp-L-Lys-L-Thr-L-Cys]-L-Thr-NH2 (peptide)
peptide: Suc-[dD][dS][dS][dS][dS][dS]T[dY][dS]CF[dW]KTCT-NH2
modifications: disulfide 10-15
SMILES: C[C@@H](O)[C@H](NC(=O)[C@@H]1CSSC[C@H](NC(=O)[C@@H](CO)NC(=O)[C@@H](Cc2ccc(O)cc2)NC(=O)[C@@H](NC(=O)[C@@H](CO)NC(=O)[C@@H](CO)NC(=O)[C@@H](CO)NC(=O)[C@@H](CO)NC(=O)[C@@H](CO)NC(=O)[C@@H](CC(=O)O)NC(=O)CCC(=O)O)[C@@H](C)O)C(=O)N[C@@H](Cc2ccccc2)C(=O)N[C@H](Cc2c[nH]c3ccccc23)C(=O)N[C@@H](CCCCN)C(=O)N[C@@H]([C@@H](C)O)C(=O)N1)C(N)=O

Biological target: somatostatin subtype 2 rat receptor (rat, UniProt P30680 1-369)
Experiment: cell-based or functional assay

Sequence of somatostatin subtype 2 rat receptor (P30680 whole entry): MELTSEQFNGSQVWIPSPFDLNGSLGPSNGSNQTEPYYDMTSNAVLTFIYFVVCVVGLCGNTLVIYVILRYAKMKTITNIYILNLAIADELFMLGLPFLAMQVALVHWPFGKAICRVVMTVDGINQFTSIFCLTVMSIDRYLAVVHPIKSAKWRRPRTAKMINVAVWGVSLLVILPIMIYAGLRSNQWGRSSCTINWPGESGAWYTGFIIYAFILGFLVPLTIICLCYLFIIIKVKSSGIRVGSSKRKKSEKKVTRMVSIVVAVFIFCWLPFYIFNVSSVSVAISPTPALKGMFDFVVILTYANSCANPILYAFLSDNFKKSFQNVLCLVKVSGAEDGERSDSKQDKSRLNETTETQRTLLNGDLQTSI

| Binder | IC50 (nM), inhibition of GH release from primary cultures of rat pituitary cells [nM] |
| --- | --- |
| {MTXCOO‑CH2CO}-[dK][dY]K[dY][dK]CF[dW]KTCT-NH2 (cysteine pairing not given here) [MTXCOO-CH2CO-D-Lys-D-Tyr-Lys-D-Tyr-D-Lys-Cys-Phe-D-Trp-Lys-Thr-Cys-Thr-NH2] | 0.62 |
| B1 | 0.14 |
| B2 | 0.72 |
| B3 | 0.094 |
| mercaptoacetate-GG[dD][dS][dS][dS][dS][dS][4Pal][dY][dS]CF[dW]KTCT-NH2 (disulfide 12-17) | 0.97 |
| B4 | 0.24 |
| B5 | 0.93 |
| succinate-[dS][dS][dS][dS][dS][Abu][dY][dS]CF[dW]KTCT-NH2 (disulfide 9-14) | 0.61 |
| B6 | 0.086 |
| {3‑N,N‑dimethylaminobenzoyl}-[dS][dS][dS][dS][dS][dS][dS][dS][dS][dS][dS][dS][dS][dS][dS]K[dY][dY]CF[dW]KTCT-NH2 (disulfide 19-24) | 0.27 |
| Succinate-[dS][dS][dS][dS][dS]S[dY][dS]CF[dW]KTCT-NH2 (disulfide 9-14) | 5.6 |
| succinate-[dD][dS][dS][dS][dS][dS][Nle][dY][dS]CF[dW]KTCT-NH2 (disulfide 10-15) | 0.52 |
| B7 | 7.55 |
| B8 | 0.18 |
| B9 | 0.55 |
| B10 | 0.45 |
| {MTXCOO‑CH2CO}-[dS][dS][dS][dS][dS]K[dY][dY]CF[dW]KTCT-NH2 (cysteine pairing not given here) [MTXCOO-CH2CO-(D-Ser)5-Lys-D-Tyr-D-Tyr-Cys-Phe-D-Trp-Lys-Thr-Cys-Thr-NH2] | 0.16 |
| B11 | 5.17 |

Reference: patent US20050070470A1 (ADMINISTRATORS OF THE TULANE EDUCATIONAL FUND, published 2005)
